Source: IntAct's records for PubMed 23893131

B1: Glia maturation factor gamma (Mus musculus), Q9ERL7 (parent)
chain: MSDSLVVCEVDPELKETLRKFRFRKETNNAAIIMKVDKDRQMVVLEDELQNISPEELKLELPERQPRFVVYSYKYVHDDGRVSYPLCFIFSSPVGCKPEQQMMYAGSKNRLVQTAELTKVFEIRTTDDLTETWLKEKLAFFR

Variants of: B1
Conditions: with arpc2_bovin ARPC2, Q3MHR7

Effect of a mutation on the interaction, decreasing interaction strength:
MSDSLVVCEVDPELKETLRKFRFRKETNNAAIIMKVDKDRQMVVLEDELQNISPEELKLELPERQPRFVVYSYKYVHDDGRVSYPLCFIFSSPVGCKPEQQAMYAGSKNRLVQTAELTKVFEIRTTDDLTETWLKEKLAFFR [M102A]
MSDSLVVCEVDPELKETLRKFRFRKETNNAAIIMKVDKDRQMVVLEDELQNISPEELKLELPERQPRFVVYSYKYVHDDGRVSYPLCFIFSSPVGCKPEQQMMYAGSKNRLVQTAELTKVFEIETTDDLTETWLKEKLAFFR [R124E]
MSDSLVVCEVDPELKETLRKFRFRKETNNAAIIMKVDKDRQMVVLEDELQNISPEELKLELPERQPRFVVYSYKYVHDDGRVSYPLCFIFSSPVGCKPEQQMMYAGSKNRLVQTAELTKVFEIRTTDKLTETWLKEKLAFFR [D128K]
